Data published in patent CN114395037A (SHENZHEN PEOPLE HOSPITAL, dated 2022).

Target: T1, CRT N+P结构域 (CALR N+P) (UniProt P27797 18-308)
T1 construct: range 18-308; The ELISA and SPR sections say only 'CRT蛋白' or '纯化抗原蛋白'; also called CRT蛋白; 钙网蛋白; not shown: His tag (Ni purification, anti-His WB)
T1 sequence (looked up): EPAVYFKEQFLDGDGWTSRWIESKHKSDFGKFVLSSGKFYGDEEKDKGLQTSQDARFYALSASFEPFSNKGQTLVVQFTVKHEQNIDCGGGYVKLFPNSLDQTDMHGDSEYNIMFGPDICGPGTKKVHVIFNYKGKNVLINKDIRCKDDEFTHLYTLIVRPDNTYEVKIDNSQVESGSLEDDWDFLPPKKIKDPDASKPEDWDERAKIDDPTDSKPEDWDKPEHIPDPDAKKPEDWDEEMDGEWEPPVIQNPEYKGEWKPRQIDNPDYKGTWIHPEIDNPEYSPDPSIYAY
Assay: SPR (Biacore), antigen protein immobilised on the chip, nanobody as analyte

B1: 204纳米抗体 (VHH)
VHH: AVQLVESGGGLVQAGGSLRLSCVASGRPFSLYAVGWFRQAPGKAREFVAAISRSGSTTDHADSVKGRFTVSRDNDANTVSLLMSNLKPEDTAIYYCAAARSTRGYDYWGQGTQVTVSS
notes: Alpaca-derived nanobody from a naive phage display library, expressed in E. coli with an HA tag; not shown: fused HA tag (and a tag for Ni purification, vector PET-14B)
Kd: 0.53 nM
